Reference: patent US20230189818A1, “RNA-BASED CONTROL OF BOTRYTIS” (priority 2021, published 2023)

Legend:
[1] = system: Botrytis cinerea conidia; assay: In vitro liquid-based assay (fungal biomass, 96-well plates, Cytation 5); format: cell-based; details: co-incubated with conidia for three days, vs untreated control
Procedure: Fungal culture. The Botrytis cinerea was plated each week the culture onto Malt Extract Agar (MEA) from long-term storage on silica stored at 4° C. Three pellets of silica were added to the center of a MEA agar plate and grown at room temperature without parafilm/tape seal for 10-14 days before use; a culture 12 days old was typically used.
Spore and media preparation. A pure culture of B. cinerea was flooded with a 0.01% Triton x-100 solution and conidia scraped free with a sterile hockey stick. The suspension was transferred to two, 1.5 mL centrifuge tubes and centrifuged at 8000 rpm for two minutes. The supernatant was discarded, pelleted spores washed twice with sterile water, then resuspended in sterile water. Conidia were quantified using a hemacytometer and diluted to a final concentration of 5000 conidia/mL stock. A stock solution of 1.25× minimal media was prepared for the assay setup using the components below. Once the stock solution was made, the pH was adjusted to 6.0 using NaOH or KOH, then filter sterilized through a 0.2 um filter tower and vacuum pump and stored at 4° C. The Kao & Michayluk Vitamins (100×) is a filter sterilized stock solution. The stock contains vitamins and amino acids as described by Kao & Michayluk. After filter sterilization, 20 mg of 4-Aminobenzoic acid in 100 ml of solution was added.
Experimental setup. Screening assays were setup in 96-well plates with conidia co-incubated with treatments (controls and dsRNAs) for three days before determining fungal biomass. Each treatment was replicated eight times within a single plate. In each well consisted of 12.5 μl of conidia suspension, 25 μl of the treatment, 12.5 μl of sterile deionized water, and 200 μl of minimal media. Each plate was covered with a breath right film and placed in the percival growth chamber at 23° C. on the shaking platform set to 120 RPM with 24-hour lighting. Plates were incubated for 72 hours before determining fungal growth.
Reading assay plate. Fungal biomass was determined by reading plates with the Cytation 5 machine. The program was set to compile 8 photo slices per well under brightfield microscopy with a 2.5× lens to measure biomass.
Data analysis. Analysis will automatically run on Cytation5 to determine final biomass.
Results are shown in Table 1B representing the average reduction in biomass vs. control for tested sequences across several runs described above.

[2] = system: Botrytis cinerea isolate (B05.10); assay: Detached leaf assay (tomato leaflets, lesion size); format: in vivo; details: five days post inoculation, vs untreated inoculated control
Procedure: Plant tissue. Tomato plants, variety Brandywine, were grown in the greenhouse for 3 weeks before harvesting the first true leaves for assays. Nodes 2-4 were prioritized for harvest and only lateral leaflets were used for assays. Leaflets of approximately the same size were used each week and were randomized among treatments. Detached leaflets were immediately brought into the lab for treatment and used within 4 hours of harvest. Detached leaflets were kept at 4° C. until they were treated and placed onto a 1% water agar medium for incubation.
Fungal culture. A Botrytis cinerea isolate (B05.10) was preserved on silica for long-term storage and pulled from these tubes stored at 4° C. for growth on a nutritive medium. Three pellets of silica were added to the center of a Malt Extract Agar (MEA) agar plate and grown at room temperature without parafilm/tape seal for ˜14 days, or until abundant conidia formation, before use.
Treatment of leaflets. Leaflets were treated 24 hours before inoculation and applied using an atomizer to get a fine mist of small droplets entirely covering the leaflet. Silwet L-77 was used as a spreader and added for a 0.03% final concentration (Silwet L-77 brand Phyto Technology Laboratories, S7777 Lot #14D7777001 F). The inoculated control was sprayed with the same volume of sterile DI water with Silwet L-77 in the absence of fungicide or experimental material. Leaflets were spray treated by laying them on a paper towel and holding the atomizer ˜6″ away from the leaflet for applications. Treated leaves were placed on a 1% water agar (10 g Bacto Agar, Difco, in 1 L deionized water, sterilized for 30 minutes at 121° C. and poured when reached a temp of 55° C. into 100×20 mm Petri dishes), with lids of the Petri dishes placed back on before putting Petri dishes under plastic bags to maintain humidity before inoculation the following day. Petri dishes of treated leaflets were left on the lab counter until the following day. Each treatment was replicated ten times with each replicate being a single treated leaflet with two inoculation sites, one on each side of the leaf midvein.
Inoculation. The conidial suspension was prepared by pouring a 7% white grape juice solution onto the culture plate, then scraping the plate with a sterile spatula to dislodge the spores and mycelia. The grape juice solution was prepared by mixing Welch's brand organic white grape juice into sterile deionized water. After dislodging the spores and mycelia of the culture, the suspension was poured through two layers of cheesecloth to remove fungal mycelia and catch the conidial suspension in a clean 50 mL conical tube. Approximately 3 uL of TWEEN 20 was added to conidial suspension to prevent sticking to conical tube. The spore concentration was determined using a Neubauer Improved hemocytometer and inoculum was diluted with more 7% grape juice until a spore concentration of 1×10^5 conidia/mL was reached. Inoculum was used to inoculate host tissue within 2 hours of preparation. Each tomato leaflet was inoculated twice, with inoculation sites placed one per side of the leaflet midvein. A 10 μL volume of spore suspension was placed at each inoculation site using a repeater pipette. Special care was taken not to touch the tip to leaflet surface to avoid contamination between treatments.
Incubation. Petri dishes were placed on lunch trays 6 plates high and moved to an incubator. The incubator was humidity controlled and holds at ˜75% relative humidity. The incubator was kept on 12/12 light/dark days and is set to a temperature of 23° C.
Rating. Measurements were taken at five days post inoculation (DPI). Each lesion that developed was measured using electronic calipers in 2 directions perpendicular to each other to help determine lesion diameter.
Data analysis. Data was analyzed using the SAS JMP statistical program (version 13.2.1) with comparisons made to the untreated, inoculated control. […]

[3] = system: Botrytis cinerea B05.10 isolate; assay: Greenhouse whole plant assay (tomato 'Lanai', disease severity); format: in vivo; details: 25 g ai/ha; final rating day (rating #3); three runs; four-week-old 'Lanai' tomato plant
Procedure: Plant Tissue: Tomato seedlings, variety “Lanai”, were seeded then thinned to one plant per pot in an 18 cell tray. […] Plants were grown at a 23° C./17° C. day/night temperature with 10 hours of light each 24-hour period. The RH was ambient and plants were fertilized two times a day every day except for Sunday when they received only water. Plants were grown using Fafard brand medium (70-80% sphagnum peat moss, perlite, vermiculite, dolomite limestone and watering agent) for the entire experiment.
Fungal culture. A Botrytis cinerea B05.10 isolate was maintained, and spores were harvested as previously described for detached leaf assays, except a grape juice additive was not used for inoculum preparation.
Treatment of plants. Whole tomato plants were treated ˜24 hours before inoculation using the spray booth. A 0.07% Silwet L-77 solution was used as a spreader and added for a 0.07% final volume in water (Silwet L-77 brand Phyto Technology Laboratories, S7777 Lot #14D7777001 F). The spray booth deck was set to 20″ above the plant canopy and a twinjet 8002EVS nozzle with 100 mesh filter placed into the spray mechanism. The spray boom was calibrated before treatment application with specs as follows: 50 GPA rate, 1.25 MPH speed, 6′ spray length, single pass, and at 45 psi to get a catch of 133 mL in 10 seconds (+/−6 mL). Each treatment was replicated ten times for each experimental run.
Inoculation. Plants were inoculated using a mist-o-matic applicator, which is pressurized by manual pumping. The inoculum suspension was poured into the mist-o-matic immediately before inoculation in the GH space. The containers were only filled half-way and inoculum was applied evenly to the surface of all foliage with even coverage.
Incubation. Plants were incubated inside of a 40″ tall humidity chamber supported by PVC pipe and covered in 3M translucent plastic. A humidifier was inside the chamber and set to low and continuous humidity (filled with tap water). The temperature was D:24-20° C./N:20-18° C. with 15 hours of light, of which 9 hours was with supplemental lighting. RH was ambient and watering occurred everyday by sub-irrigation with the bench being flooded for 10 minutes before draining.
Rating. Tomato plants were rated three times during the two-week experiment with rating starting four days post-inoculation and occurring every three to four days after the initial rating date. Plants were rated for the number of lesions and disease severity, which is the percentage of the plant that was symptomatic including necrotic lesions, pathogen sporulation, and chlorosis.
Data analysis. […] Percent disease severity (%DS) was determined by the percent area of the tomato foliage with symptoms including lesions, chlorosis, necrosis, and wilting. Disease severity was rated at three dates (Rating #) over the 12-day test period. Treatments were compared to the untreated, inoculated control and a chemical standard. Statistical analysis was done using SAS JMP version 13.2.1 with treatments compared to the untreated, inoculated control and a chemical standard using Tukey-Kramer and student's T tests.

Molecule | Average % Reduction in Biomass ([1]; 25 ppm dsRNA) | Average % Reduction in Biomass ([1]; 150 ppm dsRNA) | Average % Reduction in Lesion Size ([2]; 30 ppm) | Average % Reduction in Lesion Size ([2]; 50 ppm) | % control [3]
GS245: dsRNA trigger targeting B. cinerea Sec18/Cdc48_2 (XM_024693092.1); trigger SEQ ID NO 13, RNA 25, reverse complement 37 (nucleic acid, listed as Botrytis cinerea) sense: UCAAGAGAGCCGAAGGUCAUAAACGGUCCUGAAGUGCUUAAUAAAUACGUUGGUCAAUCCGAAGAAAAUAUCCGAAAGCUUUUUGCCGAUGCCGAAAAGGAGUACAAGGAAAAGGGAGACGAGAGUGGUCUUCAUAUCAUCAUUUUCGACGAAUUGGAUGCCGUUUGCAAACAAAGAGGAAGUGGAUCAGGUGGCGGAACUGGUGUUGGCGACAGUGUGGUCAAUCAACUGUUGUCUAAGCUUGAUGGUGUUGACCAGCUCAAUAACAUUCUACUUAUUGGAAUGACCAAUCGUAUGGAUAUGAUUGAUGACGCGCUUCUCAGACCCGGACGUUUAGAAGUUCACAUGGAAAUUUCCCUGCCAGAUGAAGCUGGCAGAGCACAAAUUCUUAAGAUUCAUACGUCCAAGAUGUUAAAGAAUGAUGUCAUGGAUACAGAUGUCGAUGUUGCUGAACUUGCUCAUCUAACCAAGAACUUCUCGGGAGCUGAAAUUG antisense: CAAUUUCAGCUCCCGAGAAGUUCUUGGUUAGAUGAGCAAGUUCAGCAACAUCGACAUCUGUAUCCAUGACAUCAUUCUUUAACAUCUUGGACGUAUGAAUCUUAAGAAUUUGUGCUCUGCCAGCUUCAUCUGGCAGGGAAAUUUCCAUGUGAACUUCUAAACGUCCGGGUCUGAGAAGCGCGUCAUCAAUCAUAUCCAUACGAUUGGUCAUUCCAAUAAGUAGAAUGUUAUUGAGCUGGUCAACACCAUCAAGCUUAGACAACAGUUGAUUGACCACACUGUCGCCAACACCAGUUCCGCCACCUGAUCCACUUCCUCUUUGUUUGCAAACGGCAUCCAAUUCGUCGAAAAUGAUGAUAUGAAGACCACUCUCGUCUCCCUUUUCCUUGUACUCCUUUUCGGCAUCGGCAAAAAGCUUUCGGAUAUUUUCUUCGGAUUGACCAACGUAUUUAUUAAGCACUUCAGGACCGUUUAUGACCUUCGGCUCUCUUGA | 12% | 7% | 34.78% | 30.52% | 33%
GS2651: dsRNA trigger targeting B. cinerea Bcsec15 (XM_024692064.1); trigger SEQ ID NO 52, RNA 56, reverse complement 60 (nucleic acid, listed as Botrytis cinerea) sense: UAUGCCUGUCAAUAGCGAAGAAGACUUUGAUAAAAUCAUUCAAGUCAGUUGGUAUGUUCCGGACAGACCGAAAGAAGAAUACACAUUCCCCGGUGUAUUACCAUUCUCCCAGAUGUACCCAAUGUGCUGUAUAGAUAUCAGAAAUUUCCUGAAUCGAUUCUACUUCAUAAUGGAUGAUCAUUUUCAACAGCCAAACAUUAUUGAUGAGACACUUAAGAAGUCGAUAGAUGAGCUUCUGUCUGAGGAUAUUU antisense: AAAUAUCCUCAGACAGAAGCUCAUCUAUCGACUUCUUAAGUGUCUCAUCAAUAAUGUUUGGCUGUUGAAAAUGAUCAUCCAUUAUGAAGUAGAAUCGAUUCAGGAAAUUUCUGAUAUCUAUACAGCACAUUGGGUACAUCUGGGAGAAUGGUAAUACACCGGGGAAUGUGUAUUCUUCUUUCGGUCUGUCCGGAACAUACCAACUGACUUGAAUGAUUUUAUCAAAGUCUUCUUCGCUAUUGACAGGCAUA | 21% | 54% | 9.38% | 12.74% | –
